Laboratory results as given in US20140314832A1 (SHANGHAI PULMONARY HOSPITAL TONGJI UNIVERSITY SCHOOL OF …, published 2014).

Legend:
[1] = molecular target: T1, rat pulmonary surfactant protein A (rSP-A), recombinant (rat (Rattus norvegicus), UniProt P08427 21-248, limits assumed); assay: indirect phage ELISA on coated rSP-A, OD 450 nm
Procedure: (1) Single clonies obtained from the three rounds of selections and grown on 2YTAG plates were inoculated into the 72-well culture plate at 30° C., and cultured with shaking overnight. (2) 400 ul of M13K07 helper phage was put in each well of another 72-well culture plate (labeled P1 Plate) the next day. (3) 40 ul of cultured medium were taken from each well of the Master Plate, which was cultured overnight, and put in each well of the P1 Plate, and incubated at 37° C. with shaking overnight. The culture supernatant was prepared by centrifugation at 1500 g for 20 minutes set aside, and the recombinant antibody was obtained. (4) A 96-well microtiter plate was coated with rSP-A. (5) 160 ul of recombinant antibody was mixed with 40 μL of MPBS, incubated for 20 minutes at room temperature. It was then added to blocked microtiter wells and reacted for 2 hours at 37° C. (6) Washing and adding HRP secondary antibody: HRP-labeled antibody against M13KO7 was diluted 1:4000 in PBS, 200 ul of that was added to each well, and incubated and reacted for 1 hour at 37° C. (7) 200 ul TMB substrate solution was added to each well, incubated at 37° C. for about 45 minutes to develop the image, 100 ul of stop solution was added to each well to stop the development process, and measurements were taken at 450 nm. Preliminary screening was conducted to select positive clones binding to rSP-A ith specificity.

[2] = molecular target: T2, natural SP-A in rat lung tissue (rat, UniProt P08427 21-248); assay: immunohistochemistry (method of Example 6, rat lung tissue)
T2 construct: The immunohistochemistry is done on rat lung tissue; also called natural SP-A in the lung tissue

[3] = molecular target: T1, rat pulmonary surfactant protein A …; assay: ELISA of purified nanobody on rSP-A, OD450
[4] = molecular target: T2, natural SP-A in rat lung tissue; assay: immunohistochemistry on rat lung tissue slices, HIS-IgG-HRP secondary
From the text: Fresh tissues from the lung, heart, liver, spleen, kidney, muscle of rat were fixed and sliced, and diluted primary antibody (Nb6, Nb17 for the experimental groups, SPA polyclonal antibody (SPA-poly-ant) as a positive control group, and alliinase as a negative control group) was dropped on. The secondary antibody was HIS-IgG-HRP. […] The binding effect of Nb17 was similar to that of SPA-poly-ant, while Nb6 had weaker binding effect than Nb 17, as there is differneces in the amino acid sequence at the antigen binding region between these two. All three antibodies had no obvious binding effect with rat heart, liver, spleen, kidney, muscle tissues, nor had the negative control group (FIG. 6).

Binder	affinity value relative to negative control [1]	binding result [2]	other results
Nb41 (VHH, Alpaca VHH clone; screened as phage clone; also called N0; 41; rSPA-Nb) VHH: MQAQLAGQLQLVESGGGMVQPGGSLRLSCAASGFIFSRYDMGWVRQTPGKGREWVSGINSGGGRTYYADSVKGRFTISRDDDKATLYLSMDGLKPEDTALYHCVRFTVKTPQGYYYLNDFDYWGQGTQVTVSSEPKTPKPQGPRGLAAAGAPVPYPDPLEPRAA	3 fold over negative control		
Nb1 (VHH, Alpaca VHH clone; screened as phage clone (pCANTAB 5E); also called N0; rSPA-Nb) VHH: MQAQLAGQLQLVESGGGLVQPGGSLKLSCTASETTFEIYPMAWYRQAPGKQRELVAGINMISSTKYIDSVKGRFTISRDNDKNTMYLQMNSLKPEDTAVYYCNLDTTMVEGVEYWGQGTQVTVSSAHHSEDPGPRGLAAAGAPVPYPDPLEPRAA	3 fold over negative control		
Nb11 (VHH, Alpaca VHH clone; screened as phage clone; also called N0; 11; rSPA-Nb) VHH: MQAQLAGQLQLVESGGGLVQPGGSLRLSCVVSGVTFNNYGMTWVRQAPGKGLEWISTIYSNGHTYYADFVKGRFTISRDNAKNTLYLQMISLKPEDTAKYYCRLTGETYRGQGTQVTVSSEPKTRKPQGPRGLAAAGAPVPYPDPLEPRAA	3 fold over negative control	binds	OD450 relative to negative control [3]: 5 fold over negative control
Nb18 (VHH, Alpaca VHH clone; screened as phage clone; also called N0; 18; rSPA-Nb) VHH: MQAQLAGQLQLVESGGGLVQPGGSLMLSCVVSGVTISNYGMTWVRQAPGKGLEWISTIYSNGHTYYADSVKGRFTASRDNAKNTLYLQMNSLKPEDTAKYYCKLTGETHRGQGTQVTVSSEPKTPKPQGPRGLAAAGAPVPYPDPLEPRAA		binds	
Nb17 (VHH, Alpaca VHH clone; screened as phage clone, then cloned into PET-30a, expressed in E. coli BL21 (DE3), nickel-purified, 17 kDa, detected with anti-His; also called N0; 17; rSPA-Nb) VHH: MQAQLAVQLQLVESGGGLVQPGGSLRLSCVVSGVTISNYGMSWVRQAPGKGLEWISTIYSNGHTYSADSVKGRFTISRDNAKNTLYLQMNSLKPEDTAKYYCKLVGETHRGQGTQVTVSSEPKTPKPQGPRGLAAAGAPVPYPDPLEPRAA			binding result [4]: binds
Nb45 (VHH, Alpaca VHH clone; screened as phage clone; also called N0; 45; rSPA-Nb) VHH: MQAQLAVQLQLVESGGGLVQAGGSLRLSCVASGSMFNFYGMAWYRQAPGKQRELVASIDSEGRTTNYPDSLKGRFTISRDDAKSTAYLQMNNLIPDDTAVYYCNAFRGRMYDYWGQGTQVTVSSEPKTPKPQGPRGLAAAGAPVPYPDPLEPRAA	3 fold over negative control		
Nb43 (VHH, Alpaca VHH clone; screened as phage clone; also called N0; 43; rSPA-Nb) VHH: MQAQLAGQLQLVESGGGLVQIGGSLRLSCAASGSDFSIYHMGWYRQAPGKQRELVAAITSGGSTNYADSVKGRFTISSDNAKNTVYLQMNSLKPEDTAVYYCNADGVPEYSDYASGPVYWGQGTQVTVSSAHHSEDPGPRGLAAAGAPVPYPDPLEPRAA	3 fold over negative control		
Nb47 (VHH, Alpaca VHH clone; screened as phage clone; also called N0; 47; rSPA-Nb) VHH: MQAQLAGQLQLVESGGGRVQAGGSLTLSCAASGDIFTLASMGWYREDLHKKRELVAQLMSDGTANYGDSVKGRVTISRDDVDTTVHLRMNTLQPSDTGEYFCYIHTSREITWGRGTQVTVSQGESSAPQSSAPQATVSSAHHSEDPGPRGLAAAGAPVPYPDPLEPRAA	3 fold over negative control		
Nb36 (VHH, screened as phage clone; also called N0; 36; rSPA-Nb) VHH: MQAQLAVQLQLVESGGGLVQPGGSLRLSCAASGRAFSVYAVGWYRQIPGNQREMVAAISSGGNTKYSDSVKGRFTVSSEPKTPKPQGPRGLAAAGAPVPYPDPLEPRAA	3 fold over negative control		OD450 relative to negative control [3]: 5 fold over negative control
Nb28 (VHH, Alpaca VHH clone; screened as phage clone; also called N0; 28; rSPA-Nb) VHH: MQAQLAGQLQLVESGGGLVQPGGSLRLSCEASGFTFDDYAIGWFRQAPGKEREEVSCISHNGGTTNYADSVKGRFSISRDNAKNTVYLQMNGLKPEDTANYYCAGARSGLCVFFELQDYDYWGQGTQVTVSSAHHSEDPGPRGLAAAGAPVPYPDPLEPRAA	3 fold over negative control		
Nb22 (VHH, Alpaca VHH clone; screened as phage clone; also called N0; 22; rSPA-Nb) VHH: MQAQLAGQLQLVESGGGLVQPGGSLRLSCAASGRAFSVYAVGWYRQPPGKQRELVASITDGGSTNYADSVKGRFTVSRDNARNTAYLDMNSLKVEDTAVYYCNANYGGSVLYNYWGPGTQVTVSTEPKTPKPQGPRGLAAAGAPVPYPDPLEPRAA	3 fold over negative control		
Nb9 (VHH, Alpaca VHH clone; screened as phage clone; also called N0; rSPA-Nb) VHH: MQAQLAGQLQLVESGGGLVQPGGSLRLSCTASEFTLDYHSIGWFRQAPGKEREGVSCISYGDGTTFYTDSVKGRFTISRDNAKNTVTLQMNSLKPEDTAVYYCAASPGRLLLFRLCMSEDEYDFWGQGTQVTVSSEPKTPKPQGPRGLAAAGAPVPYPDPLEPRAA		binds	
Nb19 (VHH, Alpaca VHH clone; screened as phage clone; also called N0; 19; rSPA-Nb) VHH: MQAQLAGQLQLVESGGGLVQPGGSLRLSCTASEFTLDYHSIGWFRQAPGKEREGVSCISYGDGTTFYTDSVKGRFTISRDNAKNTVTLQMNSLKPEDTAVYYCAASPGRLLLFRLCMSEDEYDFWGQGTQVTVSSEPKTPKPQGPRGLAAAGAPVPYPDPLEPRAA		binds	
Nb3 (VHH, Alpaca VHH clone; screened as phage clone; also called N0; rSPA-Nb) VHH: MQAQLAVQLQLVESGGGLVQPGGSLRLSCVVSGVTFNNYGMSWVRQAPGKGLEWISSIYSNGHTYSADSVKGRFTISRDNANNTLYLQMNSLKPEDTANYYCKLVGETHRGQGTQVTVSSEPNTPKPQGPRGLAAAGAPVPYPDPLEPRAAYTVESCLA	3 fold over negative control		
Nb27 (VHH, Alpaca VHH clone; screened as phage clone; also called N0; 27; rSPA-Nb) VHH: MQAQLAVQLQLVESGGGLVQPGGSLRLSCEVSGSRGSIYFSGWYRQAPGKQRELVASITSGGTTNYADSVKGRFTISRDNAKNTVYLQMNSLKPEDTAVYYCNIGRYGLGGSWGQGTQVTVSSEPKTPKPQGPRGLAAAGAPVPYPDPLEPRAA	3 fold over negative control		
Nb34 (VHH, Alpaca VHH clone; screened as phage clone; also called N0; 34; rSPA-Nb) VHH: MQAQLAVQLQLVESGGGTVQPGGSLNLSCVTSGFTFSRHDMSWVRQAPGKGPEWISGIGTSGTSGRYASSVKGRFTISRDNAKDTLYLQMDSLKPEDTGLYYCTTGGVYSAYVQPRGKGTQVTVSSAHHSEDPGPRGLAAAGAPVPYPDPLEPRAA	3 fold over negative control		
Nb32 (VHH, Alpaca VHH clone; screened as phage clone; also called N0; 32; rSPA-Nb) VHH: MQAQLAGQLQLVESGGGLVQPGGSLRLSCTASKFHLDSYAVAWFRQTPGKEREAVSFINTSDDVTYFADSVKGRFTISRDNSKNTVYLQMNVLKPEDTSVYVCAAVRSPGPTGPSMQPMWSVPDLYDYWGQGTQVTVSSAHHSEDPGPRGLAAAGAPVPYPDPLEPRAA	3 fold over negative control	binds	OD450 relative to negative control [3]: 5 fold over negative control
Nb48 (VHH, Alpaca VHH clone; screened as phage clone; also called N0; 48; rSPA-Nb) VHH: MQAQLAGQLQLVESGGGLVEVGESLRLSCVALGFTLDGYAIGWFRQAPGKEREKISCISSTGDSTNYDDSVKGRFTISRDTAKSTVFLQMNNLIPEDTAIYYCGADLLARCGRVWYFPPDLNYRGQGTQVTVSSAHHSEDPGPRGLAAAGAPVPYPDPLEPRAA	3 fold over negative control	binds	OD450 relative to negative control [3]: 5 fold over negative control
